In patent US20150359861:

Target: Nicotinamide phosphoribosyltransferase (Nampt) (UniProt P43490)
UniProt P43490, sequence (P43490 whole entry, looked up): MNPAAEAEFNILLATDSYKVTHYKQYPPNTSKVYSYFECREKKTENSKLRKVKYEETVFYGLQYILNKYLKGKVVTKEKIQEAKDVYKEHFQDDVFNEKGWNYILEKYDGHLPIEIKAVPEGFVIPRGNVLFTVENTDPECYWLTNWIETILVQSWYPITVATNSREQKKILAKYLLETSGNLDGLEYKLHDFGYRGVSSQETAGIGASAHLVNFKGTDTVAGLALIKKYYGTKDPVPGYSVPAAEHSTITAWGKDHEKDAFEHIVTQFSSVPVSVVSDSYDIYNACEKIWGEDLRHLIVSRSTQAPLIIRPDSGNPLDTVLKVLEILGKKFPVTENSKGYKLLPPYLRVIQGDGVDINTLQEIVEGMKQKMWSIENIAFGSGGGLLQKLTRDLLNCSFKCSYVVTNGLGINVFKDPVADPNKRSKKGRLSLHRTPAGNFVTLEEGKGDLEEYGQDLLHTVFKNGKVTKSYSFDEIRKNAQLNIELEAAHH

purified recombinant human Eno1 was tested, and the “Nampt activity (Cyclex Nampt activity assay kit on anti-Nampt immunoprecipitates of lysates from myotubes treated with 500 or 1000 ug/ml Eno1 for 48 hours)” value was “Eno1 treatment increased Nampt activity”.
